± gives the standard deviation of the averaged measurements.
System: Saccharomyces cerevisiae
Assay: protein stability index of tFT-peptide fusion (C-terminal peptide) (PSI (0-1 scale)); higher = more stable (slower turnover)
Conditions: genetic background: wild type; temperature: 30 C
Method: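 Multiplexed protein stability (MPS) profiling in S. cerevisiae. Random 12-aa peptides (tFT-X12 library) are fused to the C-terminus of a sfGFP-mCherry tandem fluorescent timer, after mCherry and a GGGS linker. Cells are FACS-sorted into 8 mCherry/sfGFP bins and deep-sequenced. The protein stability index (PSI) is the read-weighted bin average, scaled from 0 (unstable) to 1 (stable). Only peptides with >10 reads are reported; cells were grown at 30 °C in SC-His with glucose.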
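Further: PSI is a weighted mean of sequencing reads over stability bins, variants kept only with over 10 reads, mCherry proximal and sfGFP distal, peptide attached via GGGS linker.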

Point of comparison: PPPLLSPLSPPP, protein stability index 0.571. Against it:
- LPQTVPPPPSPP — within error, 0.624 ± 0.06
- YHPPLDHHQCTE — higher, 0.648 ± 0.063
- RFVCSRLGGSVP — higher, 0.64 ± 0.0029
- VHPRFSFGPHFV — higher, 0.7027 ± 0.00094
- PLCLCCPIGIIS — lower, 0.516 ± 0.008
- PHPWTSPPAPPP — higher, 0.698 ± 0.022
- APPVAKHHAGKD — higher, 0.647 ± 0.016
- CGCFLSELATFC — higher, 0.652 ± 0.059
- GSRARKARQPHG — within error, 0.582 ± 0.2
- VINKHYINKCQG — within error, 0.638 ± 0.088
- GRSGSVGGIRGR — higher, 0.727 ± 0.04
- VGVCLVSLGSWL — higher, 0.605 ± 0.013
- VCICDRLASRDV — higher, 0.733 ± 0.067
- AWGVCRPGGRGG — higher, 0.681 ± 0.035
- FVGFVFSSAVGL — higher, 0.684 ± 0.011
- RLLYGIYDHGRQ — higher, 0.731 ± 0.091
- PPFPPLPSPFTS — higher, 0.708 ± 0.018
- SRFEPLSCEQCS — higher, 0.66 ± 0.05
- LTRPHPPPVRTP — higher, 0.711 ± 0.083
- MRRNGRNILGVA — higher, 0.729 ± 0.054
- PSQKRITDPRET — higher, 0.683 ± 0.047
- SGDVGVGHWVGG — higher, 0.692 ± 0.022
- RGKGGKKRRKRD — higher, 0.648 ± 0.07
- GSCFLLSLVSFI — lower, 0.56199 ± 0.00047
- WALLAAGGGGRG — higher, 0.651 ± 0.074
- SLAVDVRVSWEI — higher, 0.704 ± 0.017
- VVELRGEKLVGR — higher, 0.6784 ± 0.005
- CLAPPTFAPSSL — higher, 0.752 ± 0.081
- AWEWMTVQVVRG — higher, 0.586 ± 0.012
- QRQPPEACPKNS — higher, 0.747 ± 0.01
- PASPCTPLPFSP — higher, 0.686 ± 0.04
- RTDRIVGGNERV — higher, 0.661 ± 0.0072
- WSGERCFLGFYR — higher, 0.771 ± 0.087
- CLCLGGIWIVGG — higher, 0.63 ± 0.027
- PTVNIDSQSRSP — higher, 0.692 ± 0.079
- SGVLKHLRKESS — higher, 0.641 ± 0.018
- VSLLSLRAFYKL — higher, 0.667 ± 0.05
- ATSFHALPVFTS — higher, 0.644 ± 0.053
- KKEISEKTNKKL — higher, 0.69 ± 0.012
- VGRPGGVAQHRG — higher, 0.734 ± 0.077
- YPPGSPVPPGLP — higher, 0.671 ± 0.0076
- KKKKEKKETKKK — higher, 0.67 ± 0.028
- PPRVVPDISTSL — higher, 0.699 ± 0.039
- PLSLRLCYLPWY — higher, 0.701 ± 0.0086
- NHHETRNDCSST — higher, 0.771 ± 0.12
- WLWLGFNRVFFY — lower, 0.511 ± 0.033
- GYGWGVGWGFGR — higher, 0.673 ± 0.028
- WYSSSRDLSVSG — higher, 0.731 ± 0.0076
- TKNTQNNGKDKK — higher, 0.734 ± 0.059
- GGGGGWGGAGGV — higher, 0.737 ± 0.048
- SPNAPMPPRPRH — within error, 0.594 ± 0.033
- SPPICLPLFRVR — higher, 0.65 ± 0.017
- PPLRPAPPPPLS — higher, 0.7 ± 0.12
- WGLGLYEENTGC — higher, 0.7468 ± 0.003
- KRQKENRKNKKI — higher, 0.704 ± 0.019
- YFCCFIPFFFDC — higher, 0.663 ± 0.069
- VRRGGRARRRGS — higher, 0.698 ± 0.016
- WSSSRPASGSSA — higher, 0.708 ± 0.016
- PPPPPPPPPSPP — higher, 0.704 ± 0.0066
- ATLSSVSSGSSF — within error, 0.647 ± 0.12
- RSAPPPPPLRLD — higher, 0.789 ± 0.062
- PHPSLPGPFPHP — higher, 0.7049 ± 0.0045
- SRPPRSPPLPPV — higher, 0.686 ± 0.046
- PPPPRSPPHPLL — higher, 0.69 ± 0.013
- GRGVAPQGAVDA — higher, 0.714 ± 0.027
- PSSSSWPPPRHP — higher, 0.831 ± 0.18
- FPMHFRVRCRPV — higher, 0.62 ± 0.045
- LGFRCLGRGPDH — higher, 0.644 ± 0.033
- VARPMHFIRYGK — higher, 0.716 ± 0.018
- GPPAGGTARSPM — higher, 0.694 ± 0.029
- RPAGGPSGGEGV — higher, 0.689 ± 0.074
- GLLVAGGRNGDC — higher, 0.719 ± 0.054
- HTKHSQIIKHQS — higher, 0.641 ± 0.03
- VCGSGGGCWGGG — higher, 0.622 ± 0.0096
- PPPPGCLPRPAS — higher, 0.699 ± 0.021
- GSDVPCFLSLSY — higher, 0.711 ± 0.02
- PTLPTPAARPGR — higher, 0.696 ± 0.016
- YRTCLHRGRQML — higher, 0.68188 ± 0.00019
- GSGRLGGDRVVG — higher, 0.6578 ± 0.0029
- IKKKKNKKENAE — higher, 0.725 ± 0.092
- KPSHNEARKKGG — higher, 0.681 ± 0.014
- LRCCGGCGVCAL — higher, 0.686 ± 0.03
- LLFDQTRIGMDV — higher, 0.675 ± 0.038
- RCGGIWWIVSSV — higher, 0.669 ± 0.081
- FVEIRGGGDRRM — higher, 0.706 ± 0.013
- SGEVSYVYVGNK — higher, 0.6553 ± 0.0011
- RQRLGLRIIIPS — higher, 0.624 ± 0.017
- VLGPWVLSVLWF — lower, 0.546 ± 0.022
- SVSPSPPSPHLR — higher, 0.688 ± 0.011
- LACLPPLLLFSL — lower, 0.539 ± 0.00097
- GLKNECAIDGVL — higher, 0.623 ± 0.045
- NVYRYSWYCSEF — higher, 0.728 ± 0.088
- RDKKMKHIKDKR — higher, 0.79 ± 0.11
- CLGSGGRVSRGA — higher, 0.6715 ± 0.0022
- SPRLPPPPPLPP — within error, 0.651 ± 0.11
- PPFLTTYPHLAP — higher, 0.71 ± 0.031
- ERGGGRRRLSNA — higher, 0.656 ± 0.062

— the supplement of paper PMC10724198
